Reference: patent US20240209099A1 (SUZHOU TRANSCENTA THERAPEUTICS, published 2024)

Columns and labels:
[1] = target: T1, Recombinant Human VEGFR2/KDR Protein, His tag (hVEGFR2-his) (human, UniProt P35968 20-764); assay: SPR (Biacore), antibody captured by anti-Fc, antigen 2.5-80 nM
T1 construct: Expressed in HEK293, bought from ACRO Biosystems; also called human VEGFR2-his; Human VEGFR2/KDR-His
Experimental: A CM5 sensor chip was activated in each flow cell by 7-min injection (10 μl/min) of freshly prepared 1:1 50 mM N-hydroxysuccinimide (NHS): 200 mM 1-ethyl-3-(3-dimethylaminopropyl)-carbodiimide (EDC). Then anti-human Fc antibody (GE Healthcare) in a concentration of 10 μg/ml in 10 mM sodium acetate buffer PH 5.0 was injected onto the activated chip at 10 μl/min (HBS-EP running buffer: 10 mM HEPES, 150 mM NaCl, 3.4 mM EDTA, 0.005% surfactant P20, pH 7.4). The remaining active coupling sites were blocked by 7 min injection of 1M ethanolamine at 10 μl/min. The immobilization level of each flow cell is ˜9000RU. Antibodies were captured in FC2 by anti-human Fc IgG or anti-mouse Fc (GE Healthcare) to 200˜300RU. FC1 was used as the reference cell. Antigen was injected at varying concentrations (2.5 nM, 5 nM, 10 nM, 20 nM, 40 nM and 80 nM) after capture of antibody. The association time for antibody binding antigen is 180s. Surface Regeneration condition is 120s at 10 μl/min in Gly pH1.5. The signals with captured antibody subtracted from those without captured antibody were calculated with Biacore X100 evaluation software ver. 2.0 (Biacore).

[2] = target: T1, Recombinant Human VEGFR2/KDR Protein, …; assay: competition ELISA on coated hVEGFR2-his: hybridoma antibody titrated against 100 ng/ml chimeric 002C, anti-human IgG Fc-HRP
[3] = target: T2, human VEGFR2 on HUVEC cells (human, UniProt P35968 20-1356); assay: flow cytometry on HUVEC cells, percent shifted cells (Shift%), anti-mouse IgG-PE
T2 construct: also called hVEGFR2 on HUVEC
T2 sequence (P35968 20-1356 V297I/Q472H limits assumed): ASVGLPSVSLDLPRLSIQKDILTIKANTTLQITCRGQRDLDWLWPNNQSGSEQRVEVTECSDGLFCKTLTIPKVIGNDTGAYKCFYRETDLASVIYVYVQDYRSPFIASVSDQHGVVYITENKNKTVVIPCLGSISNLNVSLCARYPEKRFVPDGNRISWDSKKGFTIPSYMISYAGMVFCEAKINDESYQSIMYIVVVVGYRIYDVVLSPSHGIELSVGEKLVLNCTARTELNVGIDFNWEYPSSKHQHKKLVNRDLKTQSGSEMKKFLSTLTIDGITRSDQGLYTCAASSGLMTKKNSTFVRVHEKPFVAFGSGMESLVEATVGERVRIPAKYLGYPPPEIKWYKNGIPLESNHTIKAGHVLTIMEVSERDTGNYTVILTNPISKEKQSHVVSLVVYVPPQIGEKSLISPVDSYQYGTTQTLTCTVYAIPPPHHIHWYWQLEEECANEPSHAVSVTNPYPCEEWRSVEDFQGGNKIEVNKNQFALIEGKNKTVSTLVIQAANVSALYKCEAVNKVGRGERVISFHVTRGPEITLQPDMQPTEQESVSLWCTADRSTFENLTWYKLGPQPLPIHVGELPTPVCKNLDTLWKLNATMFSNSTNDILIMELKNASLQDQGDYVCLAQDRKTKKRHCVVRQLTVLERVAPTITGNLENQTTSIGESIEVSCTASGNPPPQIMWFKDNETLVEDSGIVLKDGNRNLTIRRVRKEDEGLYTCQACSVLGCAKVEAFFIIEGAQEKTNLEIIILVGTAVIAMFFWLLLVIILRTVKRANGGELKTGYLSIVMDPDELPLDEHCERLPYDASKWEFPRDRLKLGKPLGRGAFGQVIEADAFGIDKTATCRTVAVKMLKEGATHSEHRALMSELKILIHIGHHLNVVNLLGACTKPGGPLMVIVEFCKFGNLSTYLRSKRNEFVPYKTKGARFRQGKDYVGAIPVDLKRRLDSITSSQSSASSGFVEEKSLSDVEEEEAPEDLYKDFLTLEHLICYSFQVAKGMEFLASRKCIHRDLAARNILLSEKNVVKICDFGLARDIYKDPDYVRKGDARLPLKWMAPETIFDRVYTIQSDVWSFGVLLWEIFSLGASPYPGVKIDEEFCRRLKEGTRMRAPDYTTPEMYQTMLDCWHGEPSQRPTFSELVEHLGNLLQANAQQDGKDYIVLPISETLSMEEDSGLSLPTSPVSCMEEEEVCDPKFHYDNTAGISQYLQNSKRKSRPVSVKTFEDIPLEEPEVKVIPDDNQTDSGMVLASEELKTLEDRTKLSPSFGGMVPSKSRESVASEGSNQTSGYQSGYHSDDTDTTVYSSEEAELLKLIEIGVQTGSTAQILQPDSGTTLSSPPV
Experimental: Log phase HUVEC cells were collected, counted and resuspended in FACS buffer (5% BSA+PBS). 2×10∧5 cells were added to each tube and then washed once with PBS (1500 rpm, 5 mins, RT). Then […] serial diluted VEGFR2 antibodies purified from hybridoma supernatant in FACS buffer were added into corresponding tubes and were incubated at 4° C. for 1 hr. The cells were then washed twice with 1 ml PBS, followed by adding 100 μl/tube of 2nd antibody (1:400 anti-mIgG (H+L)-PE, Cell signaling #8887) in FACS buffer. The cells were incubated at 4° C. for 0.5 hr and then washed twice with PBS, followed by resuspending cells in 600 μl PBS for each sample. The cells were then transferred into FACS tube and the bindings of the antibodies to the cells were detected using flow cytometry (BD Accuri C6) (see FIG. 3).
The percentage of positive binding cells was calculated and fit by Graphpad Prism Software.

[4] = target: T1, Recombinant Human VEGFR2/KDR Protein, …; assay: competition ELISA: hVEGFR2-his coated (1 ug/ml), antibody titrated, then 0.3 ug/ml hVEGF-A added and bound VEGF-A detected; blocked ligand hVEGF-A
Experimental: High-binding clear polystyrene 96 well plates were coated with 100 μl/well of 1 μg/ml hVEGFR2-his overnight at 4° C. After washing and blocking, serial diluted antibodies (from 10 μg/ml to 0.0006 μg/ml) were added and incubate for 1 hour at RT. 0.3 μg/ml hVEGF-A (Acrobiosystem, Cat #VE5-H4210) were added and incubated for 2 hour at RT. Then 100 μl/well of 0.25 μg/ml Biotinylated Rabbit Anti-human VEGF-A (Peprotech, Cat #400-P10Bt) was then added for detecting bound VEGF-A. Then 100 μl/well of a solution of HRP conjugated Neutravidin antibody (Pierce, Cat #31001) and TMB were added sequentially. Finally, reaction was terminated using 0.64M H₂SO₄ and plates were read at 450 nm.

[5] = target: T1, Recombinant Human VEGFR2/KDR Protein, …; assay: ELISA, hVEGFR2-his coated
Experimental: Same protocol of Example 2 antibody screening by ELISA assay. Briefly, 0.5 μg/ml hVEGFR2-his was coated and serially diluted purified antibodies would bind to coated antigen. Using HRP conjugated goat anti-mouse Fc antibody could detect binding signals of each antibody.
The hybridoma antibodies have similar affinity to human.

[6] = target: T1, Recombinant Human VEGFR2/KDR Protein, …; assay: ELISA, hVEGFR2-his coated, anti-human Fc-HRP; antibody made in 293T cells
Experimental: Same protocol of Example 4 except using HRP conjugated goat anti-human Fc antibody as secondary antibody. Binding to hVEGFR2-his and rhesus VEGFR2-his (Acrobiosystems, Cat #VE2-C52H3) were also analyzed head-to-head.
Same protocol of Example 9.

T1 sequence (P35968 other isoform, or with tags, fused parts or gaps): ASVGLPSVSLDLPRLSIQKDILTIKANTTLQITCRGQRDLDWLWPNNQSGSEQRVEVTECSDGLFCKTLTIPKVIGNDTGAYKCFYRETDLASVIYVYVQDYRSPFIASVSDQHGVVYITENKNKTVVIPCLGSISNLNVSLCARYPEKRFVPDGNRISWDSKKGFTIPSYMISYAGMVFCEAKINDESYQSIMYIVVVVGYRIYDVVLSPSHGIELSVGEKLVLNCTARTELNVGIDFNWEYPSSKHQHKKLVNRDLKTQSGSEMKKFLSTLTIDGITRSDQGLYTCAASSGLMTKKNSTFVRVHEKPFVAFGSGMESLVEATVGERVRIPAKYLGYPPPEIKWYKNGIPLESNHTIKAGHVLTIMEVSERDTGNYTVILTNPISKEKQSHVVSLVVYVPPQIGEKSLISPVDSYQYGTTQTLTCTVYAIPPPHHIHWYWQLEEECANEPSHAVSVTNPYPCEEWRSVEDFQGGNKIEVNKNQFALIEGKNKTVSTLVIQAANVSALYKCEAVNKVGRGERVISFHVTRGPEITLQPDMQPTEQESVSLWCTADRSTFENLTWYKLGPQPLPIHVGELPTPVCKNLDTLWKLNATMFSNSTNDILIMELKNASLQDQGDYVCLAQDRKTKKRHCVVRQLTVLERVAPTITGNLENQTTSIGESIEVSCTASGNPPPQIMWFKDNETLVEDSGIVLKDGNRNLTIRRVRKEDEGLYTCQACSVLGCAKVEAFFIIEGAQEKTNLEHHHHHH

Binder	Kd [1]	koff [1]	kon [1]	IC50 (read off the curve) [2]	EC50 [3]	IC50 [4]	EC50 [5]	EC50 [6]
002 (mouse hybridoma antibody) (antibody, V domains shown, Mouse antibody purified from hybridoma; also called mAb002; 11B8) VH: QVQLQQSGPELVKPGASVKISCKASGYAFSSSWMNWVKQRPGEGLEWIGRIFPGDGDTYYNGKFQVKATLTADKSSSTAYMQLSSLTSEDSAVYFCAIFLDTSGRYVDYWGQGTTLTISS VL: DIVMTQSHKFMSTSVGDRVSITCKASQDVNTAVAWYQQKPGQSPKLLIYSASYRYIGVPDRFTGSGSGTDFTFTISSVQSEDLTVYYCQQHYRAPLTFGSGTKLELK	5.98 nM	0.000336 s⁻¹	56200 M⁻¹ s⁻¹	~0.2 mg/L	0.0462 mg/L	0.0434 mg/L	0.0168 mg/L	
042 (mouse hybridoma antibody) (antibody, V domains shown, Mouse antibody purified from hybridoma; also called mAb042; 8G11G1B2C6) VH: EVQLVESGGDLVKPGGSLKLSCTASGFSFSIYGMSWVRQTPDKRLEWVASISVGGSYTYYADSVEGRFTISRENAKNTLYLQMNSLKSEDTALYYCARELDGNYDYWGQGTSLTVSS VL: DIVITQNELSNPVTFGESVSISCRSSKSLLYKDGKTYLNWFLQRPGQSPQLLIYLMSTRASGVSDRFSGSGSGTDFTLEISRVKAEDVGVYYCQQLVEYPFTFGSGTKLEIK	0.573 nM	4.88e-05 s⁻¹	85100 M⁻¹ s⁻¹	~0.1 mg/L	0.052 mg/L	0.0629 mg/L	0.0224 mg/L	
003 (mouse hybridoma antibody) (antibody, V domains shown, Mouse antibody purified from hybridoma; also called mAb003; 21B4) VH: QVQLQQPGAELVKPGASVKMSCKASGYTFNTYWIMWVKQRPGQGLEWIGDIYPGTGSTNYNEKFKSKVTLTADTSSTTAYMQVSSLTSEDSAVYYCGRDSNPDYWGQGTTLTVSS VL: not shown	0.235 nM	2.95e-05 s⁻¹	126000 M⁻¹ s⁻¹				0.00769 mg/L	
006 (mouse hybridoma antibody) (antibody, V domains shown, Mouse antibody purified from hybridoma; also called mAb006; 27E8A9D5) VH: QAQLQQPGAELVKPGTSVKMSCKASGYTFNSYWIMWVKQSPGQGLEWIGDIYPGSGSTNYNEKFKSKVTLTVDTSSSTAYMQVSSLTSEDSAVYYCARDSNPDYWGQGTTLTVSS VL: not shown	1.47 nM	0.000186 s⁻¹	127000 M⁻¹ s⁻¹				0.0135 mg/L	
018 (mouse hybridoma antibody) (antibody, V domains shown, Mouse antibody purified from hybridoma; also called mAb018; 16D9G2E8) VH: EVKLVESGGGLVQPGGSLSLSCAVSGFTFTDYYMSWVRQPPGKALEWLGFIRNKANGYTTEYSASVKGRFTISRDNSQSILYLQMNALRAEDSATYYCARFDYYGSTYCFDYWGQGTTLTVSS VL: DIVLTQSPASLAVSLGQRATISCRASQSVSTSSSSFMHWYQQKPGQPPKLLIKYASNLESGVPARFSGSGSGTDFTLNIHPVEEEDTATYYCQHTWEIPLTFGAGTKLELK	5.11 nM	0.000452 s⁻¹	88400 M⁻¹ s⁻¹				0.0129 mg/L	

Now from value to binder:

Kd [1]	koff [1]	kon [1]	IC50 (read off the curve) [2]	EC50 [3]	IC50 [4]	EC50 [5]	EC50 [6]	Binder
							0.0171 mg/L	48-H3L2 (antibody, V domains shown, also called humanized Mab48 variant H3L2) VH: EVQLVESGGGLVKPGGSLRLSCAASGFTFSMYGMSWVRQAPGKRLEWVASISIGGSYTYYADSVKGRFTISRDNAKNTLYLQMNSLRAEDTAVYYCAREMDGNYDYWGHGTTLTVSS VL: DIVITQTPLSLPVTPGESVSISCRSSKSLLYKDGKTYLNWFLQRPGQSPQLLIYLMSTRASGVPDRFSGSGSGTDFTLKISRVEAEDVGVYYCQQLVEYPFTFGSGTKLEIK
3.68 nM	0.000139 s⁻¹	37700 M⁻¹ s⁻¹					0.0706 mg/L	54-H1L2 (humanized Mab54) (antibody, human IgG1, V domains shown, also called humanized 54 variant H1L2) VH: EVQLVESGGGLVKPGGSLKLSCAASGFTFSMYGMSWVRQTPGKRLEWVASISIGGSYTYYADSVKGRFTISRDNAKNTLYLQMNSLKAEDTAVYYCARELDGNYDYWGQGTTLTVSS VL: DIVITQTPLSLPVTPGESVSISCRSSKSLLYKDGKTYLNWFLQRPGQSPQLLIYLMSTRASGVPDRFSGSGSGTDFTLKISRVEAEDVGVYYCQQLVEYPFTFGSGTKLEIK
1.14 nM	5.15e-05 s⁻¹	45100 M⁻¹ s⁻¹					0.0221 mg/L	54-H1L1 (humanized Mab54) (antibody, human IgG1, V domains shown, also called humanized 54 variant H1L1) VH: EVQLVESGGGLVKPGGSLKLSCAASGFTFSMYGMSWVRQTPGKRLEWVASISIGGSYTYYADSVKGRFTISRDNAKNTLYLQMNSLKAEDTAVYYCARELDGNYDYWGQGTTLTVSS VL: DIVITQDELSLPVTFGESVSISCRSSKSLLYKDGKTYLNWFLQRPGQSPQLLIYLMSTRASGVSDRFSGSGSGTDFTLKISRVEAEDVGIYYCQQLVEYPFTFGSGTKLEIK
4.3 nM	0.000128 s⁻¹	29700 M⁻¹ s⁻¹					0.0442 mg/L	54-H2L2 (humanized Mab54) (antibody, human IgG1, V domains shown, also called humanized 54 variant H2L2) VH: EVQLVESGGGLVKPGGSLRLSCAASGFTFSMYGMSWVRQAPGKRLEWVASISIGGSYTYYADSVKGRFTISRDNAKNTLYLQMNSLRAEDTAVYYCARELDGNYDYWGQGTTLTVSS VL: DIVITQTPLSLPVTPGESVSISCRSSKSLLYKDGKTYLNWFLQRPGQSPQLLIYLMSTRASGVPDRFSGSGSGTDFTLKISRVEAEDVGVYYCQQLVEYPFTFGSGTKLEIK
